# Reference: patent US20110118131A1 (published 2011)
# Residue numbers refer to the chain shown, from its start. Names may count otherwise.
# B1: XPA23 Fab, heavy chain G103D (Fab, V domains shown)
# VH: EVQLLESGGGLVQPGGSLRLSCAASGFTFSKYFMFWVRQAPGKGLEWVSVISPSGGMTRYADSVKGRFTISRDNSKNTLYLQMNSLRAEDTAVYYCARVGYGDNSDYWGQGTLVTVSS
# VL: DIQMTQSPSSVSASVGDRLTIICRASQDINRWLAWYQQTPGNAPKLLIHSATSLQSGVPSRFSGSGSGTDFTLTINSLQPEDFATYYCQQADSFPLTFGGGTKVEIK
# B2: XPA23 Fab, heavy chain N104E (Fab, V domains shown)
# VH: B1 VH with D103G, N104E
# VL: B1 VL
# B3: XPA23 Fab, heavy chain M57F (Fab, V domains shown)
# VH: B1 VH with M57F, D103G
# VL: B1 VL
# B4: XPA23 Fab, heavy chain G103F (Fab, V domains shown)
# VH: B1 VH with D103F
# VL: B1 VL
# B5: XPA23 Fab, heavy chain N104R (Fab, V domains shown)
# VH: B1 VH with D103G, N104R
# VL: B1 VL
# B6: XPA23 Fab, heavy chain M57K (Fab, V domains shown)
# VH: B1 VH with M57K, D103G
# VL: B1 VL
# B7: XPA23 Fab, heavy chain G103K (Fab, V domains shown)
# VH: B1 VH with D103K
# VL: B1 VL
# B8: XPA23 Fab, heavy chain G103Q (Fab, V domains shown)
# VH: B1 VH with D103Q
# VL: B1 VL
# B9: XPA23 Fab, heavy chain M57D (Fab, V domains shown)
# VH: B1 VH with M57D, D103G
# VL: B1 VL
# B10: XPA23 Fab, heavy chain K31H (Fab, V domains shown)
# VH: B1 VH with K31H, D103G
# VL: B1 VL
# B11: XPA23 Fab, heavy chain I51E (Fab, V domains shown)
# VH: B1 VH with I51E, D103G
# VL: B1 VL
# B12: XPA23 Fab, heavy chain M57R (Fab, V domains shown)
# VH: B1 VH with M57R, D103G
# VL: B1 VL
# B13: XPA23 Fab, heavy chain I51R (Fab, V domains shown)
# VH: B1 VH with I51R, D103G
# VL: B1 VL
# B14: XPA23 Fab, heavy chain K31Q (Fab, V domains shown)
# VH: B1 VH with K31Q, D103G
# VL: B1 VL
# B15: XPA23 Fab, heavy chain M57S (Fab, V domains shown)
# VH: B1 VH with M57S, D103G
# VL: B1 VL
# B16: XPA23 Fab, heavy chain K31R (Fab, V domains shown)
# VH: B1 VH with K31R, D103G
# VL: B1 VL
# B17: XPA23 Fab, heavy chain K31Y (Fab, V domains shown)
# VH: B1 VH with K31Y, D103G
# VL: B1 VL
# B18: XPA23 Fab, heavy chain M57N (Fab, V domains shown)
# VH: B1 VH with M57N, D103G
# VL: B1 VL
# B19: XPA23 Fab, heavy chain N104H (Fab, V domains shown)
# VH: B1 VH with D103G, N104H
# VL: B1 VL
# B20: XPA23 Fab, heavy chain I51W (Fab, V domains shown)
# VH: B1 VH with I51W, D103G
# VL: B1 VL
# B21: XPA23 Fab, heavy chain K31F (Fab, V domains shown)
# VH: B1 VH with K31F, D103G
# VL: B1 VL
# B22: XPA23 Fab, heavy chain K31N (Fab, V domains shown)
# VH: B1 VH with K31N, D103G
# VL: B1 VL
# B23: XPA23 Fab, heavy chain I51Q (Fab, V domains shown)
# VH: B1 VH with I51Q, D103G
# VL: B1 VL
# B24: XPA23 Fab, heavy chain I51Y (Fab, V domains shown)
# VH: B1 VH with I51Y, D103G
# VL: B1 VL
# B25: XPA23 Fab, heavy chain K31W (Fab, V domains shown)
# VH: B1 VH with K31W, D103G
# VL: B1 VL
# B26: XPA23 Fab, heavy chain G103E (Fab, V domains shown)
# VH: B1 VH with D103E
# VL: B1 VL
# B27: XPA23 Fab, heavy chain K31S (Fab, V domains shown)
# VH: B1 VH with K31S, D103G
# VL: B1 VL
# B28: XPA23 Fab, heavy chain N104D (Fab, V domains shown)
# VH: B1 VH with D103G, N104D
# VL: B1 VL
# B29: XPA23 Fab, heavy chain K31E (Fab, V domains shown)
# VH: B1 VH with K31E, D103G
# VL: B1 VL
# B30: XPA23 Fab, heavy chain M57H (Fab, V domains shown)
# VH: B1 VH with M57H, D103G
# VL: B1 VL
# B31: XPA23 Fab, heavy chain G103W (Fab, V domains shown)
# VH: B1 VH with D103W
# VL: B1 VL
# B32: XPA23 Fab, heavy chain I51K (Fab, V domains shown)
# VH: B1 VH with I51K, D103G
# VL: B1 VL
# B33: XPA23 Fab, heavy chain N104Q (Fab, V domains shown)
# VH: B1 VH with D103G, N104Q
# VL: B1 VL
# B34: XPA23 Fab, heavy chain N104K (Fab, V domains shown)
# VH: B1 VH with D103G, N104K
# VL: B1 VL
# B35: XPA23 Fab, heavy chain G103R (Fab, V domains shown)
# VH: B1 VH with D103R
# VL: B1 VL
# B36: XPA23 Fab, heavy chain I51D (Fab, V domains shown)
# VH: B1 VH with I51D, D103G
# VL: B1 VL
# B37: XPA23 Fab, heavy chain N104S (Fab, V domains shown)
# VH: B1 VH with D103G, N104S
# VL: B1 VL
# B38: XPA23 Fab, heavy chain K31D (Fab, V domains shown)
# VH: B1 VH with K31D, D103G
# VL: B1 VL
# B39: XPA23 Fab, heavy chain M57Q (Fab, V domains shown)
# VH: B1 VH with M57Q, D103G
# VL: B1 VL
# B40: XPA23 Fab, heavy chain N104F (Fab, V domains shown)
# VH: B1 VH with D103G, N104F
# VL: B1 VL
# B41: XPA23 Fab, heavy chain M57E (Fab, V domains shown)
# VH: B1 VH with M57E, D103G
# VL: B1 VL
# B42: XPA23 Fab, heavy chain M57Y (Fab, V domains shown)
# VH: B1 VH with M57Y, D103G
# VL: B1 VL
# B43: XPA23 Fab, heavy chain I51N (Fab, V domains shown)
# VH: B1 VH with I51N, D103G
# VL: B1 VL
# B44: XPA23 Fab, heavy chain I51H (Fab, V domains shown)
# VH: B1 VH with I51H, D103G
# VL: B1 VL
# B45: XPA23 Fab, heavy chain I51S (Fab, V domains shown)
# VH: B1 VH with I51S, D103G
# VL: B1 VL
# B46: XPA23 Fab, heavy chain I51F (Fab, V domains shown)
# VH: B1 VH with I51F, D103G
# VL: B1 VL
# Target: T1, IL-1beta (UniProt P01584 117-269)
# T1 construct: also called IL-1β
# Assay: Biacore
binding result,fold difference in affinity vs parental,Binder
no binding,–,B1
no binding,–,B2
–,1.03 fold,B3
no binding,–,B4
no binding,–,B5
–,0.04 fold,B6
no binding,–,B7
no binding,–,B8
no binding,–,B9
–,1.11 fold,B10
–,0.73 fold,B11
–,0.06 fold,B12
–,0.1 fold,B13
no binding,–,B14
–,0.04 fold,B15
–,0.9 fold,B16
–,0.04 fold,B17
–,0.03 fold,B18
–,0.07 fold,B19
no binding,–,B20
–,0.05 fold,B21
no binding,–,B22
–,0.83 fold,B23

binding result,fold difference in affinity vs parental,Binder
–,1.75 fold,B24
–,0.84 fold,B25
no binding,–,B26
no binding,–,B27
no binding,–,B28
no binding,–,B29
–,0.08 fold,B30
no binding,–,B31
–,0.11 fold,B32
–,0.03 fold,B33
no binding,–,B34
no binding,–,B35
–,0.07 fold,B36
–,1.02 fold,B37
–,0.04 fold,B38
–,0.02 fold,B39
no binding,–,B40
no binding,–,B41
–,0.86 fold,B42
–,0.68 fold,B43
–,0.08 fold,B44
–,0.69 fold,B45
–,0.9 fold,B46
